The target of data set [1] is HCV envelope glycoprotein E2 (expressed on CT26-HCV-E2 cells) (Hepatitis C virus) (UniProt P27958). Description: flow. To be noted: strongest binding among rounds; 8 ug ssDNA with 10^6 cells.
Data set [2] deals with GST-E2 (HCV envelope glycoprotein E2) (Hepatitis C virus) (UniProt P27958). Description: competition. To be noted: decreased from 36.7% without aptamer.
Chain of GST-E2 (HCV envelope glycoprotein E2) (Hepatitis C virus) (P27958 384-746): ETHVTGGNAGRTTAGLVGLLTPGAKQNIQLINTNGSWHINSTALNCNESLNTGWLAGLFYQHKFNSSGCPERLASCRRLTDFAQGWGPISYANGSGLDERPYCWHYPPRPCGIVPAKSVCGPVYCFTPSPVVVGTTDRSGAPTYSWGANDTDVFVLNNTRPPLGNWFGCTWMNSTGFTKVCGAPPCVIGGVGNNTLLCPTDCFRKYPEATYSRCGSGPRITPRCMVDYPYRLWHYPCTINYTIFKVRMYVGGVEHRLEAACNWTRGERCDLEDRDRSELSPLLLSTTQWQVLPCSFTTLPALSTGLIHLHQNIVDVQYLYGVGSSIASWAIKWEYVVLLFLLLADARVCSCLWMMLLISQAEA

Chain of HCV envelope glycoprotein E2 (expressed on CT26-HCV-E2 cells) (Hepatitis C virus) (P27958 384-746): as above

In the case of “GCGGAATTCTAATACGACTCACTATAGGGAACAGTCCGAGCCNNNNNNNNNNNNNNNNNNNNNNNNNNNNNNGGGTCAATGCGTCATA [13th round ssDNA aptamer library]”, the binding (% cells bound) in data set [1] turned out to be 89. This sequence gave an activity (% E2 binding to Huh 7.5.1 cells) in data set [2] of 23.2.

The values above are taken from patent publication US20100184837.
